Data set [1] deals with T1, NgaLy (Lacticaseibacillus yichunensis, UniProt A0ABW4CMK8, Y392A).
T1 construct: gene ACFQ47_05640; synthetic gene, pET-47b(+), E. coli BL21 Star (DE3); His tag cut with HRV3C; monomer; DE motif D327/E328
In words: relative activity versus wild type. In kind it is biochemical. As to conditions: substrate taken from the standard assay (Assay I).

The target of data set [2] is T2, NgaLy (Lacticaseibacillus yichunensis, UniProt A0ABW4CMK8, W431A).
T2 construct: gene ACFQ47_05640; synthetic gene, pET-47b(+), E. coli BL21 Star (DE3); His tag cut with HRV3C; monomer; DE motif D327/E328
Put plainly: relative activity versus wild type. In kind it is biochemical. As to conditions: substrate taken from the standard assay (Assay I).

Substrate in data set [3]: CC(=O)N[C@H]1[C@H](Oc2ccc([N+](=O)[O-])cc2)O[C@H](CO)[C@H](O)[C@@H]1O
In words: purified protein. Format: biochemical, Bathyarchaeia (SeqCode). As to conditions: citrate pH 6.5, 70 °C (optimum), apparent, not saturated up to 2 mM.

Substrate in data set [4]: CC(=O)N[C@H]1[C@H](Oc2ccc([N+](=O)[O-])cc2)O[C@H](CO)[C@H](O)[C@@H]1O
Put plainly: purified protein. In kind it is biochemical, Paenibacillus sp. TS12. As to conditions: citrate pH 5.5, 40 °C (optimum), apparent, not saturated up to 2 mM.

Substrate in data set [5]: CC(=O)N[C@H]1[C@H](Oc2ccc([N+](=O)[O-])cc2)O[C@H](CO)[C@H](O)[C@@H]1O
In words: purified protein. In kind it is biochemical, Arabidopsis thaliana. As to conditions: citrate pH 5.0, 40 °C (optimum), apparent, not saturated up to 2 mM.

Substrate in data set [6]: CC(=O)N[C@H]1[C@H](Oc2ccc([N+](=O)[O-])cc2)O[C@H](CO)[C@H](O)[C@@H]1O
Put plainly: purified protein. As to conditions: citrate pH 6.5, 35 °C (optimum), apparent, not saturated up to 2 mM. In kind it is biochemical, Brachybacterium faecium.

Substrate in data set [7]: CC(=O)N[C@H]1[C@H](Oc2ccc([N+](=O)[O-])cc2)O[C@H](CO)[C@H](O)[C@@H]1O[C@@H]1O[C@H](CO)[C@H](O)[C@H](O)[C@H]1O
Put plainly: purified protein. Format: biochemical, Cohnella abietis. As to conditions: citrate pH 5.0, 25 °C (optimum), apparent, not saturated up to 2 mM.

Substrate in data set [8]: CC(=O)N[C@H]1[C@H](Oc2ccc([N+](=O)[O-])cc2)O[C@H](CO)[C@H](O)[C@@H]1O
In words: purified protein. Format: biochemical, Lacticaseibacillus yichunensis. As to conditions: HEPES pH 7.0, 40 °C (optimum), apparent, not saturated up to 2 mM.

As usually defined, the Km is the substrate concentration at which the rate is half of its maximum. By kcat is commonly meant the number of substrate molecules converted per active site and unit of time at saturation.

T1 sequence (A0ABW4CMK8 entry or part of it Y392A): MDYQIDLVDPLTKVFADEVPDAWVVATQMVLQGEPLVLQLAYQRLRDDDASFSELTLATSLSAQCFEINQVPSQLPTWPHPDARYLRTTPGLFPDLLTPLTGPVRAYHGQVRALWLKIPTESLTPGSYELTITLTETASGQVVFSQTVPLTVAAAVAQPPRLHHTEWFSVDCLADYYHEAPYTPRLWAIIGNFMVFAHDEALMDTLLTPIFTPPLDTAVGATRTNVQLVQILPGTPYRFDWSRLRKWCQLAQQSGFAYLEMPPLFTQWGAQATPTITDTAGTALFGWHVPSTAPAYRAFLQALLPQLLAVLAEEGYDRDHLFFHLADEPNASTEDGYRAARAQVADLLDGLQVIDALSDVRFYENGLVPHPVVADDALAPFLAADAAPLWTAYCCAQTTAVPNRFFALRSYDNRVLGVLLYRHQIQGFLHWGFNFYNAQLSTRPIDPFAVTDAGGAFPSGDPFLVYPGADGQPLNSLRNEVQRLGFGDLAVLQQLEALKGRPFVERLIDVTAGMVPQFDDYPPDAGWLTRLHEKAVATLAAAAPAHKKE
T2 sequence (A0ABW4CMK8 entry or part of it W431A): as the sequence (A0ABW4CMK8 entry or part of it Y392A) above, with A392Y, W431A counted along it

In the case of `CC(=O)N[C@H]1[C@H](Oc2ccc([N+](=O)[O-])cc2)O[C@H](CO)[C@H](O)[C@@H]1O` [GalNAc-β-pNP], the “relative activity versus wild type” value was “The Y392A and W431A mutants were purified as soluble enzymes” at NgaLy [1]; “The Y392A and W431A mutants were purified as soluble enzymes” on NgaLy [2].

B1: NgaBa (Bathyarchaeia (SeqCode)) (protein)
chain: MSRFDVWVQDSLTKVFRDSPKPEDAIKDVVLDAVRNEYEAAQIVVHPLEDVERLEVRVTSLRHESDEYAITRVYPRFVGYVPVKRNTPDTPPEELVRKAPGMFPDPLLEEETVRVKKGENQPVWLTVYVPKDAPPGTYHGEVLIRADGDETRVKTCLRVHDVILPDERNLKLSNFLSPHNISKFHGVELWSEDFWRLLKAYARNMAEHRQSSIITPILELTRIYKGDDRLEFDFRLLDRWINLFKEEGVIGTVEGGYLAGRPPRTVEGWWTVSEFLSRRYRVFNKDGSLAYVQEPVKVSSPVFEEFISQFMPALQAHLDELGLLDSYVQHLADEPIDANAESYKHIAGLVRKYAPKIRIIEASTCKRLVDYIDVLVPLLDDYDKNMSFYEERKRRGNEVWFYTCLAPTGRYPNRLIDYSLVKVRILHWINFKYGLVGYLHWGYNYWTEKPFEDVENEPSHPFPLPPGDPFIVYPGKSGPLDSIRFEALRDGVEDYELFKLLAERKGLDEAVGLCSLAVKTITDYVRSSGELLSIRLRLINELESLG
notes: synthetic gene, pET-47b(+), E. coli BL21 Star (DE3); His tag cut with HRV3C; monomer
With B1, in the data set “purified protein [3]”, the Michaelis-Menten constant (Km) was determined as 3900 ± 1000 µM and the turnover number (kcat) was found to be 510 ± 50 s⁻¹.

B2: NgaP2 (Paenibacillus sp. TS12) (protein)
chain: LIRWSQVDEEGDTIMLEELPDFETRCLSSLSKVFADAELHDLPVNTGSAMWKEVFSFQVAYRSPQLIKSLKISAESELEPYLAIRAVGLSPSELPVFPNPDEGYIRTAPGLYPDPLYPLADGVHAVPNQWRSVWVTVSLPSMSEFIPAADIGAESVSFPIDLCFEDGKGNHLGAEKFALEIIFQELPEQTLLHTEWFHSDCIATQYKVEVFSEAHWKLIESYVHNAVNHGVNMLLTPLFTPPLDTYVGGERPTVQLIDVEITGVNEYRFKFDRLERWVEMCQRLGIQFIEFSHLFTQWGAKYAPKIIAKKDGEEKRIFGWDTEASGESYSLFLDQFLPQLVHFIRNHHLDDKVFFHVSDEPGMKHAESYRQASDILNKHLAGFSILDALSDYDFYEKGLVQIPVPSNDQIEPFIEHGVEPLWTYYCCGQDHHVSNRFFSLSSPRNRVLGAQLYKFGVQGFLHWGFNFWYSQYSKKVIDPFKVTDADCAFPSGDPFVVYPGADGPLDSIRWEVFREGLQDLRALKLLEALAGREKTLALLEQNLREELTFKSFPDDIEWLLSTREKINRAIKDAYRADR
notes: cloned from genomic DNA, pET-47b(+), E. coli BL21 Star (DE3); His tag cut with HRV3C; monomer; not the GH123 NgaP of the same strain
With B2, in “purified protein [4]”, the Km worked out at 360 ± 30 µM and the kcat was 28 ± 0.6 s⁻¹.

B3: NgaAt (Arabidopsis thaliana) (protein)
chain: MDNNVSQEMTVPVEGVAGGGTAYGFNDAEPLKQSTDPSEVPTADLVNVWCMPNTVNVGSQETPRALEPINLLAARNERESFQIAMRPKVSWAASSPSGIVQVQCSDLCSSAGDRLVVGQSLKLRRVVPVLGVPDALVPLDLPVSQLSLFPGETSVIWVSIDVPTGQPPGQYEGEIIISAMKTDGGGSSHLAKHEKDQLCVELNTCLDIMEPIEGKPMDEVVERIKCASSSLRRILFSPSFSEFISTNGSTDMMEEDVVSNLSLRIKLRLTVWEFIIPVTPSLPAVIGVSDTVIEDRFAVEHGSEDWYKKLDLHFKWLLQYRISPYFCKWGESMRVLTYTSPWPADHPKSDEYLSDSRLAAYAVPYRQVIAGDDSRESYLRKEVEILRSKPHWNKAYFYLWDEPLNMEHFDNVRKMASEIYAYAPDSRVLTTYYCGPGDAPLAPTPFESFVKVPNLLRPYTQIYCTSEWVLGNREDLVKDILDELQTENGEEWWTYICLGPSDPHPNWHLGMRGTQQRAVMWRVWKEGGTGFLYWGANCYEKATVPSAEVKFRRGLPPGDGVLYYPGEVFSSSSEPVASLRLERLLSGLQDYEYLKLYESKYGREEAMGLLEKTGVYTGPERYTLEHRPIDVLRGEVYNTCRPS
notes: synthetic gene, pET-47b(+), E. coli BL21 Star (DE3); His tag cut with HRV3C; monomer; extra N-terminal domain of ~80 residues disordered in crystal
Turning to B3, in “purified protein [5]”, the Michaelis constant (Km) turned out to be 12000 ± 5000 µM and the kcat is 8 ± 3 s⁻¹.

B4: NgaBf (Brachybacterium faecium DSM 4810) (protein)
chain: MQTVLTDSLEKVLGESAPRPAAPIGGAHASGFLGEVLSVQVALRAEEGEAPDPRSAEHAALRVRLGGEIADSARVHAVRRVPVSSPAPAEADEHYLATAPGEYPDLLEPLGGEEVRVGRGLWEALWIDVIDAPPGEHTLTLALTDTTGEQVLAEHAVQLRVHPHQLPPLSITNTHWFHADSLSTYYDVEVLSPQHWELIEAFLASAREMDVTSVLTPTWTPPLDTAEGHTRPFVQLIGIREEEGEYSFDLSALDRWLEICGRLGFTGIEIAHLFTQWGARSTPAIQVETGSGLEHRFGWHVPATSPEYRRLLEALIPVLRAHLEEHWDGQVLWHISDEPHEDQLDSYRAAKEQVADLLEGAQVVDALSSLAFAEQGVVDTPIVATSHVGPFLEAGRRPWVYYCVSQNRDVANRFIAQPSVRNRVLGRQLFAFDAPGFLHWGYNFWWAQFSLRPIDPFEETCAGGPFFGGDSFAVYPGPEGTPWLSLRHRVFAQAMADHRALTWLAELTDRPSAVALVDEGGTLTYSSFSYDVHAHLEARHAVDERIRAALAA
notes: as for B1
Turning to B4, in “purified protein [6]”, the Michaelis constant (Km) is 1000 ± 70 µM and the catalytic constant (kcat) came out at 170 ± 5 s⁻¹.

B5: NgaCa (Cohnella abietis) (protein)
chain: MANTQKTLSLSVWTASSQERVRQDDPAGESLNIELFAARGEYESFQVALKAPEGEHRNVHFVVSDLKGTGDSFISKSNLTLYREHYVYISESSPQRGTVLPEGPGWYPDALIPFIDPATNEPPSGGELIAVPFALENNSNQVIWVDIQVPRDAEAGHYSGSYIVSSEHGEVTGQISLTVWNFELPLKPSLKSTFLIWSSRKKSTVEELLKHKLMCQQWNLSEEEKGAAPTSEGEWIEKYGVNCSGLGFWSKADTFNGVMPPPPTVEEIQAAASAHPSNLFLYNYTADEIGHYTSLYEPIKAWARNLHEAGVANLITMAPVPELYDDGSGSGRSAVDIWVILPLQYDKDRIQEVLAKGDEVWSYNCCVQDDYSPKWQIDFNPIEYRIQPGFINQSLGMTGILYWRVDFWTEDPWHDVLTLRADGMEFNGEGMLVYPGEQVGIDGVVPSIRLKAIRKGIEDYEYIEILKNLGHEQWALEISQSVGPDWHNWTKDHHKLEWARKQLGERINDLMTK
notes: as for B1
For B5, in the data set “purified protein [7]”, the Michaelis constant (Km) is 11000 ± 3000 µM and the turnover number (kcat) is 1.2 ± 0.3 s⁻¹.

B6: NgaLy (Lacticaseibacillus yichunensis) (protein)
chain: MDYQIDLVDPLTKVFADEVPDAWVVATQMVLQGEPLVLQLAYQRLRDDDASFSELTLATSLSAQCFEINQVPSQLPTWPHPDARYLRTTPGLFPDLLTPLTGPVRAYHGQVRALWLKIPTESLTPGSYELTITLTETASGQVVFSQTVPLTVAAAVAQPPRLHHTEWFSVDCLADYYHEAPYTPRLWAIIGNFMVFAHDEALMDTLLTPIFTPPLDTAVGATRTNVQLVQILPGTPYRFDWSRLRKWCQLAQQSGFAYLEMPPLFTQWGAQATPTITDTAGTALFGWHVPSTAPAYRAFLQALLPQLLAVLAEEGYDRDHLFFHLADEPNASTEDGYRAARAQVADLLDGLQVIDALSDVRFYENGLVPHPVVADDALAPFLAADAAPLWTYYCCAQTTAVPNRFFALRSYDNRVLGVLLYRHQIQGFLHWGFNFYNAQLSTRPIDPFAVTDAGGAFPSGDPFLVYPGADGQPLNSLRNEVQRLGFGDLAVLQQLEALKGRPFVERLIDVTAGMVPQFDDYPPDAGWLTRLHEKAVATLAAAAPAHKKE
notes: synthetic gene, pET-47b(+), E. coli BL21 Star (DE3); His tag cut with HRV3C; monomer; DE motif D327/E328
B6: in the data set “purified protein [8]”, the Km was 1000 ± 50 µM and the turnover number (kcat) was determined as 480 ± 10 s⁻¹.

(Values after PMC11087588, “Genetic and functional diversity of β-N-acetylgalactosamine-targeting glycosidases expanded by deep-sea metagenome analysis” (Nature Communications, 2024).)
